Source: the supplement of paper PMC7125110
± gives the standard error. Variants at the floor of the assay were thinned out.

B1: glmS ribozyme (parent)
chain: AUAAAAGCGCCAGAACUACAGAAAUGUAGUUGACGAGGAGGAGGUUUAUCGAAUUUUCGGCGGAUGCCUCCAAA

Key:
Details in all cases: with glucosamine-6-phosphate
[1] = variants of: B1; assay: self-cleavage kobs at 160 uM GlcN6P; higher = faster cleavage; RNA array
How it was run: (§1)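 Over ~14 h at 37 °C, tiles were imaged as glucosamine-6-phosphate (40 μM to 10 mM) in HEPES/KCl/Mg(OAc)2 buffer flowed across sequenced MiSeq chips. The chips carried barcoded ribozyme variants transcribed in situ by E. coli RNA polymerase and tracked with a hybridised Cy3 probe. After normalisation to baseline and to non-cleaving reference variants, one- or two-exponential decay fits of per-tile medians gave kobs. kcat and KM followed from weighted Michaelis–Menten fits across concentrations.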

[2] = variants of: B1; assay: self-cleavage kobs at 2500 uM GlcN6P; higher = faster cleavage; RNA array
How it was run: as §1

[3] = variants of: B1; assay: self-cleavage kobs at 640 uM GlcN6P; higher = faster cleavage; RNA array
How it was run: as §1

[4] = variants of: B1; assay: self-cleavage kobs at 10000 uM GlcN6P; higher = faster cleavage; RNA array
How it was run: as §1

Variant | self-cleavage kobs at 160 uM GlcN6P [1] [s⁻¹] | self-cleavage kobs at 2500 uM GlcN6P [2] [s⁻¹] | self-cleavage kobs at 640 uM GlcN6P [3] [s⁻¹] | self-cleavage kobs at 10000 uM GlcN6P [4] [s⁻¹]
G35A G40A U46C G60U | < 1e-05 | < 1e-05 |  | 
G37A A48G A52G G62A | < 1e-05 |  |  | 
A39C G51A C61A | < 1e-05 | < 1e-05 |  | 
C34A A42G G66U | < 1e-05 | < 1e-05 | < 1e-05 | 
A39U U47G A52U G60U G63U | < 1e-05 |  |  | 
A36G C50A | < 1e-05 |  | < 1e-05 | 
G38A A53U A64U | < 1e-05 |  |  | 
C34U U56C G62U C71A | < 1e-05 | < 1e-05 |  | 
A33G G37U C50G | 6.35e-05 ± 3.1e-05 | 0.000141 ± 4.1e-05 |  | 
U46C U54A | 0.000326 ± 8.6e-05 |  | 0.00148 ± 0.00038 | 
G38A G51C | < 1e-05 |  |  | 
A36U U56C | < 1e-05 |  | < 1e-05 | < 1e-05
G43U G59U G60A | < 1e-05 | < 1e-05 |  | 
A33G G41U C50U C71U | < 1e-05 |  | < 1e-05 | 
G35A U57A | < 1e-05 | < 1e-05 | < 1e-05 | < 1e-05
A36U G41C | < 1e-05 | < 1e-05 |  | < 1e-05
A39C C50A A52U | < 1e-05 |  | < 1e-05 | 
G35A C50A | < 1e-05 | < 1e-05 | < 1e-05 | 
U45C A53U U69C | 9.96e-05 ± 2.7e-05 | 0.000752 ± 0.00022 | 0.000489 ± 0.00012 | 
A33U U47C C67G | < 1e-05 | < 1e-05 | < 1e-05 | 
G35C G62U A64U | < 1e-05 | < 1e-05 |  | 
C34A C61A | < 1e-05 | < 1e-05 | < 1e-05 | 
G35C G62U C67G C70U | < 1e-05 |  |  | 
G35U A36G A42G U55C | < 1e-05 | < 1e-05 |  | 
A36U G60A | < 1e-05 | < 1e-05 |  | < 1e-05
A36G U57G | < 1e-05 | < 1e-05 | < 1e-05 | < 1e-05
U47G U49G G51A G62U | < 1e-05 | < 1e-05 | < 1e-05 | 

Variant | self-cleavage kobs at 160 uM GlcN6P [1] [s⁻¹] | self-cleavage kobs at 2500 uM GlcN6P [2] [s⁻¹] | self-cleavage kobs at 640 uM GlcN6P [3] [s⁻¹] | self-cleavage kobs at 10000 uM GlcN6P [4] [s⁻¹]
G43A G60U | < 1e-05 |  | < 1e-05 | < 1e-05
A36G C61G | < 1e-05 |  | < 1e-05 | < 1e-05
G37U A42C C50U C68G | < 1e-05 | < 1e-05 | < 1e-05 | 
G43U G66U C67U | < 1e-05 |  |  | 
G44U C71G | < 1e-05 |  | < 1e-05 | < 1e-05
G38U C68A | 7.69e-05 ± 2.1e-05 | 0.000238 ± 9.6e-05 | 0.000459 ± 0.00019 | 
A39C G63C | < 1e-05 | < 1e-05 | < 1e-05 | < 1e-05
A36U U54G | < 1e-05 |  |  | 
G38A G44A C50U | < 1e-05 |  | < 1e-05 | 
G41U C50U | < 1e-05 | < 1e-05 | < 1e-05 | < 1e-05
G35A G43A U47C U56C | < 1e-05 |  | < 1e-05 | 
C34G A53U C68U | < 1e-05 | < 1e-05 |  | 
U46G A64U | < 1e-05 |  |  | 
G37C U46A C68A | < 1e-05 |  |  | 
U45G C50G C71U | < 1e-05 |  |  | 
G38C G59A | < 1e-05 |  | < 1e-05 | 
A39U G59U | < 1e-05 |  | < 1e-05 | 3.61e-05 ± 1.4e-05
G38A A39C U57A | < 1e-05 |  | < 1e-05 | 
G38C G44A | < 1e-05 |  | < 1e-05 | < 1e-05
A42C U54C A64G C68A | < 1e-05 | < 1e-05 | < 1e-05 | < 1e-05
G44A C61U | < 1e-05 | < 1e-05 | < 1e-05 | < 1e-05
U45G C61U G63A U65C | < 1e-05 | < 1e-05 | < 1e-05 | 
G35U G66C | < 1e-05 | < 1e-05 | < 1e-05 | 
G38U G44U C50A A64U | < 1e-05 |  |  | 
G38C G60C C71G | < 1e-05 |  | < 1e-05 | 
A33U U69G | 5e-05 ± 2e-05 |  | 0.000237 ± 6.3e-05 | 
C34A G37A C58U | < 1e-05 |  |  | 

Variant | self-cleavage kobs at 160 uM GlcN6P [1] [s⁻¹] | self-cleavage kobs at 2500 uM GlcN6P [2] [s⁻¹] | self-cleavage kobs at 640 uM GlcN6P [3] [s⁻¹] | self-cleavage kobs at 10000 uM GlcN6P [4] [s⁻¹]
A39C U54G | 0.000221 ± 9.6e-05 |  | 0.00106 ± 0.00043 | 0.005 ± 0.0012
G37U A48C C68U | < 1e-05 |  | < 1e-05 | 
G37C G60U C70U | < 1e-05 |  |  | 
G37A U49A C67G | < 1e-05 | < 1e-05 |  | 
G44U C50U C71A | < 1e-05 |  | < 1e-05 | 
G38U G59A | < 1e-05 |  |  | 
G40U G44U C58G | < 1e-05 |  |  | 
A42U U56G C61U | < 1e-05 |  |  | 
G35A U54G | < 1e-05 | < 1e-05 | < 1e-05 | 
A33U G63U | < 1e-05 | < 1e-05 | < 1e-05 | < 1e-05
A33G A53U | < 1e-05 | < 1e-05 |  | < 1e-05
G40A G51U | < 1e-05 |  | < 1e-05 | 
A36U C50U | < 1e-05 | < 1e-05 |  | 
A39C G43C C67U | < 1e-05 | < 1e-05 |  | 
G41A G59U C71U | < 1e-05 | < 1e-05 | < 1e-05 | 
A36G U45C | < 1e-05 | < 1e-05 | < 1e-05 | 
A39C U65A C71G | < 1e-05 | < 1e-05 | < 1e-05 | 
A36C G38A G44C C67U C68G | < 1e-05 | < 1e-05 | < 1e-05 | 
G38C G41A G51U | < 1e-05 | < 1e-05 |  | 
G43A A48C | < 1e-05 |  | < 1e-05 | < 1e-05
U45A U54C | 0.00513 ± 0.001 |  | 0.0141 ± 0.0026 | 
A33U G43C | < 1e-05 | < 1e-05 | < 1e-05 | 
G37U C50U C58A G60C A64C | < 1e-05 | < 1e-05 | < 1e-05 | 
A36C G37C A52U A64G C70G | < 1e-05 |  | < 1e-05 | 
G35A C70G | < 1e-05 |  | < 1e-05 | 
G35C A36G U49C A53C C68U | < 1e-05 | < 1e-05 | < 1e-05 | 
A33G G40C G63U | < 1e-05 | < 1e-05 | < 1e-05 | 

Variant | self-cleavage kobs at 160 uM GlcN6P [1] [s⁻¹] | self-cleavage kobs at 2500 uM GlcN6P [2] [s⁻¹] | self-cleavage kobs at 640 uM GlcN6P [3] [s⁻¹] | self-cleavage kobs at 10000 uM GlcN6P [4] [s⁻¹]
A36C A39U U57C | < 1e-05 |  |  | 
G38C G44U C67G | < 1e-05 |  |  | < 1e-05
A39G G43A A48U G51C | < 1e-05 | < 1e-05 | < 1e-05 | 
G35A A42C | < 1e-05 |  | < 1e-05 | < 1e-05
U46A U65G | 0.000293 ± 6.7e-05 | 0.00122 ± 0.00021 | 0.000975 ± 0.00016 | 0.00301 ± 0.00058
G40A C68G | < 1e-05 | < 1e-05 | < 1e-05 | < 1e-05
G38A G41C | < 1e-05 | < 1e-05 | < 1e-05 | < 1e-05
A39U G44C A64U | < 1e-05 |  | < 1e-05 | 
A42C G63U | < 1e-05 |  |  | < 1e-05
G44U C58U | < 1e-05 | < 1e-05 | < 1e-05 | < 1e-05
G40C U46A A64G C70A | < 1e-05 |  |  | 
G37A G43U U47C A52C A64U | < 1e-05 | < 1e-05 | < 1e-05 | 
A36C G59A C71G | < 1e-05 |  |  | < 1e-05
G38U A39G G41C A42U U57C | < 1e-05 |  |  | 
C34U C70U | < 1e-05 |  | < 1e-05 | 
A33U G37U G43A | < 1e-05 |  |  | 
U47G C50U G63C | < 1e-05 |  | < 1e-05 | 
G43A C58U | < 1e-05 |  | < 1e-05 | < 1e-05
A42G U54A C67A | 0.000942 ± 0.00031 | 0.00449 ± 0.0011 | 0.0023 ± 0.001 | 
A36C G44C | < 1e-05 | < 1e-05 |  | < 1e-05
A36U C61U A64G | < 1e-05 |  | < 1e-05 | 
G38A G59A | < 1e-05 |  |  | < 1e-05
C34U G40U C71U | < 1e-05 | < 1e-05 |  | 
G35A G43A | < 1e-05 | < 1e-05 |  | 
